One may read the stoichiometry N as the number of molecules, sites or subunits per partner or assembly. As usually defined, the Kd is the constant that tells how readily two partners part at equilibrium. A lower Kd goes with tighter binding.

Test [1] deals with Trypanosoma brucei arginine methyltransferase 6 (TbPRMT6), SAH-bound (Trypanosoma brucei). The test is described as follows: ITC; AcH4-21 peptide (3 mM) injected into TbPRMT6 (100 uM) bound to SAH; MicroCal iTC200, 25 °C; 30 mM Tris pH 8.0, 100 mM NaCl, 1 mM EDTA; one-binding-site model. For orientation: Isothermal titration calorimetry measures the heat released or taken up as one component is titrated into another.

The target in test [2] is Trypanosoma brucei arginine methyltransferase 6 (TbPRMT6) (Trypanosoma brucei). Description: SAXS; FL-TbPRMT6 at 1.0, 3.0 and 5.0 mg/ml in 30 mM Tris pH 8.0, 200 mM NaCl, 1 mM EDTA; molecular mass by SAXSMOW.
Test [3] shares this target. The test is described as follows: ITC; 3 mM AcH4-21 peptide injected into 100 µM TbPRMT6 with SAH bound; 25°C; 30 mM Tris pH 8.0, 100 mM NaCl, 1 mM EDTA; one-binding-site model.

Substance “AcH4-21, peptide corresponding to the first 21 residues of bovine histone H4” yielded a stoichiometry N in test [1] of 1.79.
Take “Trypanosoma brucei arginine methyltransferase 6 (TbPRMT6) (enzyme)”: the stoichiometry N in test [2] was found to be 2.
In the case of “peptide corresponding to the first 21 residues of bovine histone H4 (AcH4-21)”, the Kd in test [3] was found to be 45 µM.

The record behind these values is paper PMC3911951, “Crystal Structure of Arginine Methyltransferase 6 from Trypanosoma brucei” (PLoS ONE, 2014).
